This is an account of results in PMC3910116, “Super Spy variants implicate flexibility in chaperone action” (eLife, 2014).

What all share (details): both partners purified
Experiment [1] has as its target T1, N-terminal strep-tagged Spy (E. coli, UniProt P77754 24-161).
T1 construct: Spy, E. coli; Probably the mature protein behind the tag; not shown: Strep tag, N-terminal, kept
T1 sequence (looked up): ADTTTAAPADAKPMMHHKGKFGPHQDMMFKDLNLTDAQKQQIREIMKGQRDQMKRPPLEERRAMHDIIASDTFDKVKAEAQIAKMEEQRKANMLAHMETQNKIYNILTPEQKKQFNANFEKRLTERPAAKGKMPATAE
Nature of the experiment: pull-down; tryptic fragments of Im7 L53A I54A mixed with N-terminal strep-tagged Spy, strep-tactin sepharose column, eluted with 2.5 mM desthiobiotin, fragments identified by LC/MS.

Experiment [2] deals with T2, Spy (wild type) (E. coli, UniProt P77754 24-161).
T2 construct: N-terminal serine introduced from the Sumo fusion construct used for purification; numbers count on: the mature protein; construct as in Quan et al., 2011; also called WT; wild-type Spy; source: purified from a Sumo fusion construct (Quan et al., 2011); not shown: SUMO, N-terminal, cleaved (from the N-terminal serine left on the protein)
T2 sequence: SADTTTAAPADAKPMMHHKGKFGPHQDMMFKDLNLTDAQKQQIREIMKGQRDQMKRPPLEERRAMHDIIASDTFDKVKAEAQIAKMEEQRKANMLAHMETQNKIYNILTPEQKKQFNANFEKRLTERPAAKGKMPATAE
Nature of the experiment: BLI; biotinylated Im7 L53A I54A immobilised on streptavidin sensors (Octet RED); Spy variants at 2, 1, 0.5, 0.25 and 0.125 µM; 25°C; 40 mM HEPES, 150 mM NaCl, pH 7.5; 1:1 binding model, KD = koff/kon; apparent. (BLI is a label-free optical method that tracks binding on a fibre tip over time.)

Experiment [3] concerns the target T3, Spy Q25R (E. coli, UniProt P77754 24-161, Q25R).
T3 construct: N-terminal serine from the Sumo fusion construct; the footnote says it of Spy purification in general; Spy, E. coli, mature protein; numbers count on: the mature protein; Variant of m1 found by genetic selection, remade by site-directed mutagenesis; also called super-Spy variant; source: purified; not shown: SUMO, N-terminal, cleaved (from the N-terminal serine said of Spy purification in general)
T3 sequence: T2 sequence with Q26R
Described as above.

The target in experiment [4] is T4, Spy L32P (E. coli, UniProt P77754 24-161, L32P).
T4 construct: N-terminal serine from the Sumo fusion construct; the footnote says it of Spy purification in general; Spy, E. coli, mature protein; numbers count on: the mature protein; Variant of m1 found by genetic selection, remade by site-directed mutagenesis; also called super-Spy variant; source: purified; not shown: SUMO, N-terminal, cleaved (from the N-terminal serine said of Spy purification in general)
T4 sequence: T2 sequence with L33P
The experiment is described as above.

The target in experiment [5] is T5, Spy Q49L (E. coli, UniProt P77754 24-161, Q49L).
T5 construct: N-terminal serine from the Sumo fusion construct; the footnote says it of Spy purification in general; Spy, E. coli, mature protein; numbers count on: the mature protein; Variant of m1 found by genetic selection, remade by site-directed mutagenesis; also called super-Spy variant; source: purified; not shown: SUMO, N-terminal, cleaved (from the N-terminal serine said of Spy purification in general)
T5 sequence: T2 sequence with Q50L
The description is as above.

The target in experiment [6] is T6, Spy H96L (E. coli, UniProt P77754 24-161, H96L).
T6 construct: N-terminal serine from the Sumo fusion construct; the footnote says it of Spy purification in general; Spy, E. coli, mature protein; numbers count on: the mature protein; Variant of m1 found by genetic selection, remade by site-directed mutagenesis; also called super-Spy variant; source: purified; not shown: SUMO, N-terminal, cleaved (from the N-terminal serine said of Spy purification in general)
T6 sequence: T2 sequence with H97L
The description is as above.

Experiment [7] deals with T7, Spy Q100L (E. coli, UniProt P77754 24-161, Q100L).
T7 construct: N-terminal serine from the Sumo fusion construct; the footnote says it of Spy purification in general; Spy, E. coli, mature protein; numbers count on: the mature protein; Variant of m1 found by genetic selection, remade by site-directed mutagenesis; also called super-Spy variant; source: purified; not shown: SUMO, N-terminal, cleaved (from the N-terminal serine said of Spy purification in general)
T7 sequence: T2 sequence with Q101L
Described as above.

The target of experiment [8] is T8, Spy F115L (E. coli, UniProt P77754 24-161, F115L).
T8 construct: N-terminal serine from the Sumo fusion construct; the footnote says it of Spy purification in general; Spy, E. coli, mature protein; numbers count on: the mature protein; Variant of m1 found by genetic selection, remade by site-directed mutagenesis; also called super-Spy variant; source: purified; not shown: SUMO, N-terminal, cleaved (from the N-terminal serine said of Spy purification in general)
T8 sequence: T2 sequence with F116L
The description is as above.

For experiment [9], the target named is T9, Spy F115I (E. coli, UniProt P77754 24-161, F115I).
T9 construct: N-terminal serine from the Sumo fusion construct; the footnote says it of Spy purification in general; Spy, E. coli, mature protein; numbers count on: the mature protein; Variant of m1 found by genetic selection, remade by site-directed mutagenesis; also called super-Spy variant; source: purified; not shown: SUMO, N-terminal, cleaved (from the N-terminal serine said of Spy purification in general)
T9 sequence: T2 sequence with F116I
Described as above.

The target in experiment [10] is T2, Spy (wild type). Put plainly: ITC; Spy with full length Im7 L53A I54A or purified Im7 peptides; conditions and who was titrated not told. On the technique in general: ITC needs no label: the signal is the heat of the interaction.
Experiment [11] has as its target T3, Spy Q25R. Nature of the experiment: HDX-MS; top-down ECD-FTICR-MS; 25 µM Spy (dimer) and 100 µM Im7 peptide (1:4), 10 mM ammonium acetate, 80% D2O, labelling time 10 s.
For experiment [12], the target named is T4, Spy L32P. Described as above.
The target in experiment [13] is T5, Spy Q49L. The experiment is described as above.
The target in experiment [14] is T6, Spy H96L. Described as above.
For experiment [15], the target named is T7, Spy Q100L. The experiment is described as above.
Experiment [16] deals with T8, Spy F115L. The experiment is described as above.
Experiment [17] has as its target T9, Spy F115I. The experiment is described as above.

Residue numbers refer to the chain shown, from its start. Numbers in names are those of the source.

B1: Im7 L53A I54A tryptic fragment 5–70 (domain or fragment, UniProt Q03708 5-70, looked up)
chain: NSISDYTEAEFVQLLKEIEKENVAATDDVLDVLLEHFVKITEHPDGTDAAYYPSDNRDDSPEGIVK
notes: immunity protein 7 (Im7), residues 5-70; source: limited proteolysis of Im7 L53A I54A with trypsin
Turning to B1, the binding result in experiment [1] is “binds”.

B2: Im7 L53A I54A tryptic fragment 5–76 (domain or fragment, UniProt Q03708 5-76, looked up)
chain: NSISDYTEAEFVQLLKEIEKENVAATDDVLDVLLEHFVKITEHPDGTDAAYYPSDNRDDSPEGIVKEIKEWR
notes: immunity protein 7 (Im7), residues 5-76; source: limited proteolysis of Im7 L53A I54A with trypsin
For B2, the binding result in [1] is “binds”.

B3: Im7 L53A I54A tryptic fragment 5–43 (peptide, UniProt Q03708 5-43, looked up)
chain: NSISDYTEAEFVQLLKEIEKENVAATDDVLDVLLEHFVK
notes: immunity protein 7 (Im7), residues 5-43; most of the α1 and α2 helices; source: limited proteolysis of Im7 L53A I54A with trypsin
Take B3: the binding result in experiment [1] was “binds”.

B4: Im7 L53A I54A tryptic fragment 5–73 (domain or fragment, UniProt Q03708 5-73, looked up)
chain: NSISDYTEAEFVQLLKEIEKENVAATDDVLDVLLEHFVKITEHPDGTDAAYYPSDNRDDSPEGIVKEIK
notes: immunity protein 7 (Im7), residues 5-73; source: limited proteolysis of Im7 L53A I54A with trypsin
For B4, the binding result in experiment [1] is “binds”.

B5: Biotinylated Im7 L53A I54A (natural protein)
chain: SMELKNSISDYTEAEFVQLLKEIEKENVAATDDVLDVLLEHFVKITEHPDGTDAAYYPSDNRDDSPEGIVKEIKEWRAANGKPGFKQG
modifications: biotin (EZ-link NHS-biotin at 1:1 molar ratio; site not stated)
notes: N-terminal serine from the Sumo fusion construct; the footnote says it of Im7 purification in general; immunity protein 7 (Im7), colicin E7 immunity protein; Same protein as m10 with biotin; held on streptavidin sensors; also called biotin-conjugated Im7 L53A I54A; immunity protein 7 L53A I54A; source: purified from a Sumo fusion construct (Quan et al., 2011), biotinylated with EZ-link …
On to B5, for which the Kd with Spy (wild type) [2] is 1150 nM; in the experiment with Spy Q25R [3], 870 nM; in the experiment with Spy L32P [4], 200 nM; with Spy Q49L [5] it was 760 nM; with Spy H96L [6], 1000 nM; with Spy Q100L [7] it was 230 nM. Also, the values for the Kd with Spy F115L [8] and with Spy F115I [9] were 900 nM and 1170 nM, respectively. Further, the koff in the experiment with Spy (wild type) [2] is 0.456 s⁻¹; with Spy Q25R [3], 0.198 s⁻¹; with Spy L32P [4] it was 0.03 s⁻¹; in the experiment with Spy Q49L [5] it was 0.176 s⁻¹; with Spy H96L [6], 0.266 s⁻¹; with Spy Q100L [7], 0.027 s⁻¹. Further, the koff with Spy F115L [8] came to 0.245 s⁻¹; in the experiment with Spy F115I [9], 0.328 s⁻¹.

B6: Im7 L53A I54A (natural protein)
chain: B5 chain
notes: N-terminal serine from the Sumo fusion construct; the footnote says it of Im7 purification in general; immunity protein 7 (Im7), colicin E7 immunity protein; also called full length Im7 L53A I54A; immunity protein 7 L53A I54A; source: purified from a Sumo fusion construct (Quan et al., 2011); not shown: SUMO, N-terminal, cleaved (from the N-terminal serine said of Im7 purification in general)
Take B6: the Kd in the experiment with Spy (wild type) [10] was determined as 2500 nM.

B7: Im7 12-45 peptide (peptide)
chain: SEAEFVQLLKEIEKENVAATDDVLDVLLEHFVKIT
notes: N-terminal serine from the Sumo fusion construct; the footnote says it of Im7 purification in general; immunity protein 7 (Im7), residues 12-45; source: expressed in vivo, purified; not shown: SUMO, N-terminal, cleaved (from the N-terminal serine said of Im7 purification in general)
Take B7: the Kd with Spy (wild type) [10] turned out to be 8000 nM.

B8: Im7 3-45 peptide (peptide)
chain: SLKNSISDYTEAEFVQLLKEIEKENVAATDDVLDVLLEHFVKIT
notes: N-terminal serine from the Sumo fusion construct; the footnote says it of Im7 purification in general; immunity protein 7 (Im7), residues 3-45; source: expressed in vivo, purified; not shown: SUMO, N-terminal, cleaved (from the N-terminal serine said of Im7 purification in general)
Regarding B8, in the experiment with Spy (wild type) [10], the Kd was 2300 nM.

B9: Im7 7-45 peptide (peptide)
chain: SISDYTEAEFVQLLKEIEKENVAATDDVLDVLLEHFVKIT
notes: N-terminal serine introduced from the Sumo fusion construct; immunity protein 7 (Im7), residues 7-45; Called a 40-amino acid peptide: 39 residues of Im7 and the N-terminal serine; An equimolar mixture of unlabelled and 15N-labelled peptide was used for PICUP and EDC; also called Im7 L53A I54A 7-45 peptide; source: expressed in vivo as a Sumo fusion construct, purified; not shown: SUMO, …
In turn, B9 yielded a Kd with Spy (wild type) [10] of 2600 nM. For the same molecule, the binding result with Spy Q25R [11], with Spy L32P [12], with Spy Q49L [13], in the experiment with Spy H96L [14], in the experiment with Spy Q100L [15] and with Spy F115L [16] was “binds” throughout. Also, the binding result with Spy F115I [17] is reported as “binds”.

One may read the koff as a measure of how fast the partners let go of each other.
